Experimental data from publication PMC8567202, “Phosphoinositide-binding activity of Smad2 is essential for its function in TGF-β signaling” (The Journal of Biological Chemistry, 2021).
“Also recorded” adds a separate entry of the source.

Experiments:
HeLa cells = experiment: Nuclear translocation of EGFP-Smad2; format: cell-based; conditions: HeLa cells with endogenous Smad2 suppressed, 10 ng/ml TGF-β for 1 h
Method: Two separate gels were used to accommodate all mutants. An empty vector transfection (vehicle) was used for a negative control for each gel. Glyceraldehyde 3-phosphate dehydrogenase (GAPDH) was used as a gel loading control. Data in A and B are quantified in Fig. S3A. C, TGF-β stimulated (10 ng/ml for 1 h) nuclear translocation of mouse EGFP-WT, -K420A, -W422A, -E425K, -Y426A, and -R427A/R428A transfected into HeLa cells whose endogenous Smad2 was suppressed by siRNA. For Smad2-WT, the effect of PI(4,5)P2 depletion was measured. Arrows indicate nuclear accumulation of EGFP-WT and EGFP-E425K. Scale bars indicate 10 μm. D, quantification of (C). (Inuc/Icyto) was calculated from total nuclear and cytosolic fluorescence intensity values. Blank and black bars indicate values before and after TGF-β stimulation. Error bars indicate S.D. values from >3 measurements (n = 10). E, Smad2 transcriptional activity measured by the luciferase assay. Blank and black bars indicate values before and after TGF-β stimulation. Error bars indicate S.D. values from >3 measurements (n = 10).
The ratio of nuclear to cytoplasmic protein was calculated from the fluorescence intensity of nucleus (Inuc) and the cytoplasm (Fcyto) in cross-section images of cells using the line profile function of Image-Pro Plus software (Media Cybernetics). Briefly, at least five different lines were drawn across the cross-sectional image of each cell and the average Inuc and ICyto values were calculated along the lines. Typically, more than ten cell images were analyzed for each data set to determine the average and SD values.

[1] = system: TβRI GS region peptide (F-Ahx-YDMTTpSGpSGpSGLPLL); experiment: Fluorescence anisotropy binding to TβRI GS peptide; conditions: fluorescence anisotropy; for Kd: 20 mM Tris, pH 7.9, 160 mM NaCl, 10-min incubation, average ±S.D., n = 3, read-out: Kd for peptide binding, GS peptide
From the text: However, this tentative assignment has been confirmed neither by a high-resolution structure of the Smad2-TβRI complex nor by a quantitative and systematic binding study, leaving uncertainty about the exact nature of the Smad2-TβRI-binding interface. Since the L3 loop is a part of the newly identified PI(4,5)P2-binding site, we checked if these PI(4,5)P2-binding residues are also involved in the Smad2-TβRI interaction using two fluorescein-labeled synthetic peptides derived from the GS region (i.e., GS peptide: fluorescein-aminohexanoyl (F-Ahx)-YDMTTpSGpSGpSGLPLL) and the L45 loop (i.e., L45 peptide: F-Ahx-ADNKDNGT), respectively. In particular, the GS peptide represents the GS motif triply phosphorylated by TβRII. We then measured binding to Smad2 WT and mutants to these peptides by fluorescence anisotropy according to our established protocol ([21]). […] We thus primarily used the GS peptide to assess the effects of mutations on the Smad2-TβRI interaction. […] They also yielded distinct structural variants for further functional studies. Specifically, W422A and Y426A could serve as specific PI(4,5)P2 binding-compromised mutants and K420A as a predominantly TβRI binding-compromised mutant. R427A/R428A could also serve as a PI(4,5)P2 and TβRI binding-compromised mutant, whereas E425K as a PI(4,5)P2 and TβRI binding-enhanced mutant.
Figure 3 Affinity of Smad2 WT and mutants for TβRI-derived peptides determined by fluorescence anisotropy.A, binding of Smad2 WT (black), W422A (red), Y420A (cyan), R427A/R428A (green), K420A (blue), and E425K (orange) to the GS peptide (F-Ahx-YDMTTpSGpSGpSGLPLL). […] B, binding of Smad2 WT (black), W422A (red), Y420A (cyan), R427A/R428A (green), K420A (blue), and E425K (orange) to the L45 loop peptide (F-Ahx-DNKDNGT). C, effects of 50 μM POPC/POPS/PI(4,5)P2 (77:20:3) LUVs on binding of Smad2 to the GS peptide. The presence of vesicles (orange) raises the Kd value from 20 ± 6 to 60 ± 7 nM. The peptide concentration was fixed at 2.5 nM, and the Smad2 concentration was varied from 0 to 150 μM. The experimentally observed anisotropy (A) values were normalized (Anorm) using the equation: Anorm = (A − Amin)/(Amax − Amin) where Amax and Amin are maximal and minimal A values, respectively, for each measurement. The plots of Anormversus [Smad2] were analyzed by the nonlinear least-squares analysis using the equation: Anorm = 1/(1 + Kd/[Smad2]).
The fluorescein-6-aminohexanoyl (F-Ahx)-labeled TβRI GS region peptide (F-Ahx-YDMTTpSGpSGpSGLPLL) was dissolved in dimethyl sulfoxide to yield 1 mg/ml stock solution, F-Ahx-labeled TβRI L45 loop region peptide (F-Ahx-ADNKDNGT) was dissolved in a 3:1 mixture of water and acetonitrile to yield 2.5 mg/ml stock solution. Both peptide solutions were diluted to 1 to 10 μM with 20 mM Tris buffer, pH 7.9, containing 160 mM NaCl for binding studies. In total, 300 μl of the Smad2 (WT or mutant) solution (0–250 μM) was added to a series of 1.5 ml microcentrifuge containing the peptide solution (2.5 μM). After 10-min incubation in the dark, the mixture was transferred to a quartz cuvette with 2-mm path length and fluorescence anisotropy (r) was measured with excitation and emission wavelengths set at 485 and 535 nm, respectively, using Horiba Flurolog-3 spectrofluorometer. Since Po >> Pepo under our conditions, the Kd for the Smad2-peptide binding was determined by the nonlinear least-squares analysis of the binding isotherm using the Equation 1:(1) Pepbound/Pep0=Δr/Δrmax=1/1+kd/P0 where Pepbound, Pep0, and P0 indicate the concentration of bound peptide, total peptide, and total Smad2, respectively, and Δr and Δrmax are the anisotropy change for each P0 and the maximal Δr, respectively.

Row | Molecule | nuclear transport after TGF-β stimulation (HeLa cells) | GS peptide affinity relative to WT [1] | Kd [1] [µM] | GS peptide affinity relative to WT ([1]; listed as Y420A)
1 | EGFP-Smad2 WT: mouse EGFP-Smad2 wild type transfected into HeLa cells (protein, UniProt Q62432 2-467, looked up, EGFP fusion, mouse EGFP-Smad2 wild type transfected into HeLa cells) Mothers against …: SSILPFTPPVVKRLLGWKKSAGGSGGAGGGEQNGQEEKWCEKAVKSLVKKLKKTGRLDELEKAITTQNCNTKCVTIPSTCSEIWGLSTANTVDQWDTTGLYSFSEQTRSLDGRLQVSHRKGLPHVIYCRLWRWPDLHSHHELKAIENCEYAFNLKKDEVCVNPYHYQRVETPVLPPVLVPRHTEILTELPPLDDYTHSIPENTNFPAGIEPQSNYIPETPPPGYISEDGETSDQQLNQSMDTGSPAELSPTTLSPVNHSLDLQPVTYSEPAFWCSIAYYELNQRVGETFHASQPSLTVDGFTDPSNSERFCLGLLSNVNRNATVEMTRRHIGRGVRLYYIGGEVFAECLSDSAIFVQSPNCNQRYGWHPATVCKIPPGCNLKIFNNQEFAALLAQSVNQGFEAVYQLTRMCTIRMSFVKGWGAEYRRQTVTSTPCWIELHLNGPLQWLDKVLTQMGSPSVRCSSMS | moved from the cytoplasm to the nucleus |  |  | 
2 | Smad2-W422A: W422A mutant of full-length Smad2; specific PI(4,5)P2 binding-compromised (protein, left off: His6, N-terminal, state not stated) MSSILPFTPPVVKRLLGWKKSAGGSGGAGGGEQNGQEEKWCEKAVKSLVKKLKKTGRLDELEKAITTQNCNTKCVTIPSTCSEIWGLSTANTVDQWDTTGLYSFSEQTRSLDGRLQVSHRKGLPHVIYCRLWRWPDLHSHHELKAIENCEYAFNLKKDEVCVNPYHYQRVETPVLPPVLVPRHTEILTELPPLDDYTHSIPENTNFPAGIEPQSNYIPETPPPGYISEDGETSDQQLNQSMDTGSPAELSPTTLSPVNHSLDLQPVTYSEPAFWCSIAYYELNQRVGETFHASQPSLTVDGFTDPSNSERFCLGLLSNVNRNATVEMTRRHIGRGVRLYYIGGEVFAECLSDSAIFVQSPNCNQRYGWHPATVCKIPPGCNLKIFNNQEFAALLAQSVNQGFEAVYQLTRMCTIRMSFVKGAGAEYRRQTVTSTPCWIELHLNGPLQWLDKVLTQMGSPSVRCSSMS | did not show nuclear transport | essentially the same affinity as the WT; also recorded: essentially identical binding curves | 21 ± 5 | 
3 | Smad2-Y426A: Y426A mutant of full-length Smad2; specific PI(4,5)P2 binding-compromised (protein, left off: His6, N-terminal, state not stated) MSSILPFTPPVVKRLLGWKKSAGGSGGAGGGEQNGQEEKWCEKAVKSLVKKLKKTGRLDELEKAITTQNCNTKCVTIPSTCSEIWGLSTANTVDQWDTTGLYSFSEQTRSLDGRLQVSHRKGLPHVIYCRLWRWPDLHSHHELKAIENCEYAFNLKKDEVCVNPYHYQRVETPVLPPVLVPRHTEILTELPPLDDYTHSIPENTNFPAGIEPQSNYIPETPPPGYISEDGETSDQQLNQSMDTGSPAELSPTTLSPVNHSLDLQPVTYSEPAFWCSIAYYELNQRVGETFHASQPSLTVDGFTDPSNSERFCLGLLSNVNRNATVEMTRRHIGRGVRLYYIGGEVFAECLSDSAIFVQSPNCNQRYGWHPATVCKIPPGCNLKIFNNQEFAALLAQSVNQGFEAVYQLTRMCTIRMSFVKGWGAEARRQTVTSTPCWIELHLNGPLQWLDKVLTQMGSPSVRCSSMS | did not show nuclear transport | essentially the same affinity as the WT | 20 ± 3 | essentially identical binding curves
4 | Smad2- R427A/R428A: double mutant of full-length Smad2; PI(4,5)P2 and TβRI binding-compromised (protein, left off: His6, N-terminal, state not stated) MSSILPFTPPVVKRLLGWKKSAGGSGGAGGGEQNGQEEKWCEKAVKSLVKKLKKTGRLDELEKAITTQNCNTKCVTIPSTCSEIWGLSTANTVDQWDTTGLYSFSEQTRSLDGRLQVSHRKGLPHVIYCRLWRWPDLHSHHELKAIENCEYAFNLKKDEVCVNPYHYQRVETPVLPPVLVPRHTEILTELPPLDDYTHSIPENTNFPAGIEPQSNYIPETPPPGYISEDGETSDQQLNQSMDTGSPAELSPTTLSPVNHSLDLQPVTYSEPAFWCSIAYYELNQRVGETFHASQPSLTVDGFTDPSNSERFCLGLLSNVNRNATVEMTRRHIGRGVRLYYIGGEVFAECLSDSAIFVQSPNCNQRYGWHPATVCKIPPGCNLKIFNNQEFAALLAQSVNQGFEAVYQLTRMCTIRMSFVKGWGAEYAAQTVTSTPCWIELHLNGPLQWLDKVLTQMGSPSVRCSSMS | did not show nuclear transport | twofold lower affinity than the WT | 44 ± 4 | 
5 | Smad2-K420A: K420A mutant of full-length Smad2; predominantly TβRI binding-compromised (protein, left off: His6, N-terminal, state not stated) MSSILPFTPPVVKRLLGWKKSAGGSGGAGGGEQNGQEEKWCEKAVKSLVKKLKKTGRLDELEKAITTQNCNTKCVTIPSTCSEIWGLSTANTVDQWDTTGLYSFSEQTRSLDGRLQVSHRKGLPHVIYCRLWRWPDLHSHHELKAIENCEYAFNLKKDEVCVNPYHYQRVETPVLPPVLVPRHTEILTELPPLDDYTHSIPENTNFPAGIEPQSNYIPETPPPGYISEDGETSDQQLNQSMDTGSPAELSPTTLSPVNHSLDLQPVTYSEPAFWCSIAYYELNQRVGETFHASQPSLTVDGFTDPSNSERFCLGLLSNVNRNATVEMTRRHIGRGVRLYYIGGEVFAECLSDSAIFVQSPNCNQRYGWHPATVCKIPPGCNLKIFNNQEFAALLAQSVNQGFEAVYQLTRMCTIRMSFVAGWGAEYRRQTVTSTPCWIELHLNGPLQWLDKVLTQMGSPSVRCSSMS | did not show nuclear transport | tenfold decrease; also recorded: tenfold lower affinity than the WT | 200 ± 48 | 
